{"source": "patent US20220048996A1", "about": "(F STAR BETA, published 2022)", "binders": {"B1": {"name": "antibody OX86 (Biolegend cat no 119408) (antibody, V domains shown)", "VH": "QVQLKESGPGLVQPSQTLSLTCTVSGFSLTGYNLHWVRQPPGKGLEWMGRMRYDGDTYYNSVLKSRLSISRDTSKNQVFLKMNSLQTDDTAIYYCTRDGRGDSFDYWGQGVMVTVSS", "VL": "DIVMTQGALPNPVPSGESASITCRSSQSLVYKDGQTYLNWFLQRPGQSPQLLTYWMSTRASGVSDRFSGSGSGTYFTLKISRVRAEDAGVYYCQQVREYPFTFGSGTKLEIK"}, "B2": {"name": "G1/FS30-10-16 (antibody, IgG1, V domains shown)", "VH": "EVQLLESGGGLVQPGGSLRLSCAASGFTFSSYDMSWVRQAPGKGLEWVSDIDPTGSKTDYADSVKGRFTISRDNSKNTLYLQMNSLRAEDTAVYYCARDLLVYGFDYWGQGTLVTVSS", "VL": "EIVLTQSPGTLSLSPGERATLSCRASQSVSSSYLAWYQQKPGQAPRLLIYGASSRATGIPDRFSGSGSGTDFTLTISRLEPEDFAVYYCQQSYSYPVTFGQGTKVEIKR", "notes": "IgG1 format; also called CD137 Fab (in IgG1 format; FS30-010-016)"}, "B3": {"name": "FS20-22-49AA/FS30-35-14 (bispecific antibody, human IgG1, kappa, L234A L235A, V domains shown)", "VH": "EVQLLESGGGLVQPGGSLRLSCAASGFTFSAYNIHWVRQAPGKGLEWVSDISPYGGATNYADSVKGRFTISRDNSKNTLYLQMNSLRAEDTAVYYCARNLYELSAYSYGADYWGQGTLVTVSS", "VL": "EIVLTQSPGTLSLSPGERATLSCRASQSVSSSYLAWYQQKPGQAPRLLIYGASSRATGIPDRFSGSGSGTDFTLTISRLEPEDFAVYYCQQYYYSSPITFGQGTKVEIKR", "notes": "IgG1 with LALA; also called OX40/CD137 mAb^2"}, "B4": {"name": "G1/MOR7480.1 (antibody, human IgG1, lambda)", "heavy": "not shown", "light": "SYELTQPPSVSVSPGQTASITCSGDNIGDQYAHWYQQKPGQSPVLVIYQDKNRPSGIPERFSGSNSGNTATLTISGTQAMDEADYYCATYTGFGSLAVFGGGTKLTVLGQPKAAPSVTLFPPSSEELQANKATLVCLISDFYPGAVTVAWKADSSPVKAGVETTTPSKQSNNKYAASSYLSLTPEQWKSHRSYSCQVTHEGSTVEKTVAPTECS", "notes": "also called G1/M0R7480.1"}}, "key": {"[1]": {"target": "T1, mouse OX40 expressed on DO11.10 cells (DO11.10-mOX40) (mouse, UniProt P47741 20-272)", "T1 construct": "Also used here for OX40 on primary mouse T cells in the functional rows; also called OX40 on mouse T cells", "T1 sequence": "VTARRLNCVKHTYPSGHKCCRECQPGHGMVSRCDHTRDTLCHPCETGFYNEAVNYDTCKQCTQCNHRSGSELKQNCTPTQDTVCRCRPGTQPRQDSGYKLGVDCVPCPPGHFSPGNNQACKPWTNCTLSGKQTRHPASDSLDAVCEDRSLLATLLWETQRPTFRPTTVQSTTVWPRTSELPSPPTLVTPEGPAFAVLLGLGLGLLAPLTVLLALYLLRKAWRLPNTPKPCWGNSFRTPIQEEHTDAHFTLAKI", "assay": "flow cytometry, fluorescently-labelled antibody on DO11.10-mOX40"}, "[2]": {"target": "T2, cynomolgus CD137 expressed on DO11.10 cells (DO11.10-cCD137) (cynomolgus monkey, UniProt Q07011 24-255 (human entry))", "T2 chain": "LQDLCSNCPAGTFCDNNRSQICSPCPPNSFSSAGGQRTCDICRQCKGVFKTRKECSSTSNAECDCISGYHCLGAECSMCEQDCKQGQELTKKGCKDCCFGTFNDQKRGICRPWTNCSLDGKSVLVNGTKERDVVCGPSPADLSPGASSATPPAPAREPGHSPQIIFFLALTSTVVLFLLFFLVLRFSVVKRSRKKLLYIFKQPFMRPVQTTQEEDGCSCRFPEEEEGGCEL", "assay": "flow cytometry on DO11.10 cells expressing the target, mean ± SD of three experiments", "description": "(§1) 50 μl of the antibody dilutions were added to the wells containing cells (final volume 100 μl) and incubated at 4° C. for 1 hour. […] The plates were washed and resuspended in 100 μl of PBS containing DAPI (Biotium, cat no 40043) at 1 μg/ml. The plates were analysed using a Canto II flow cytometer (BD Bioscience) and the data analysed using FlowJo. Dead cells were identified by their higher fluorescence on the UV (405 nm/450/50) channel and excluded from analysis. […] The GMFI data was fit using log (agonist) vs response (three parameters) in Graph Pad Prism Software to generate EC₅₀ values.\n(§2) However, in this experiment, instead of using HEK cells to analyse the non-specific binding, non-transduced DO11.10 cells were used. […] The experiment was repeated three times to increase the reliability of the EC₅₀ values calculated."}, "[3]": {"target": "T3, human CD137 expressed on DO11.10 cells (DO11.10-hCD137) (human, UniProt Q07011 24-255)", "T3 construct": "also called CD137 on human T cells", "assay": "flow cytometry on DO11.10 cells expressing the target, mean ± SD of three experiments", "description": "as §1, §2"}, "[4]": {"target": "T4, human OX40 expressed on DO11.10 cells (DO11.10-hOX40) (human, UniProt P43489 29-277)", "T4 construct": "Also used here for OX40 on primary human T cells in the functional rows; also called human OX40 receptor; OX40 on human T cells", "T4 sequence": "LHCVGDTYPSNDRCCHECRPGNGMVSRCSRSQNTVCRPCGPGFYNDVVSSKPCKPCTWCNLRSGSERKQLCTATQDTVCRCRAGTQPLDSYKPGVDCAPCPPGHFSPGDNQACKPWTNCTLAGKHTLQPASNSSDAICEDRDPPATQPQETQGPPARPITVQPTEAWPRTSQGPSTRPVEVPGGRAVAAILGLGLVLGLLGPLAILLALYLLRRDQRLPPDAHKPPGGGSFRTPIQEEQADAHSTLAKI", "assay": "flow cytometry on DO11.10 cells expressing the target, three experiments", "description": "as §1, §2"}, "[5]": {"target": "T5, cynomolgus OX40 expressed on DO11.10 cells (DO11.10-cOX40) (cynomolgus, UniProt P43489 29-277 (human entry))", "T5 chain": "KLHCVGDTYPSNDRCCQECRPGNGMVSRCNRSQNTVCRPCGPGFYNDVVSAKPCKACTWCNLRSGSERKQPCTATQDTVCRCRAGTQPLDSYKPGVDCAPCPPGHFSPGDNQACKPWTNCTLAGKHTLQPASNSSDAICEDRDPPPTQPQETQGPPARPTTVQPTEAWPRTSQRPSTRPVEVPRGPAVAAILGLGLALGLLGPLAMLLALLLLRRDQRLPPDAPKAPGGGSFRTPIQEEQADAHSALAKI", "assay": "flow cytometry on DO11.10 cells expressing the target, three experiments", "description": "as §1, §2"}, "[6]": {"target": "T4, human OX40 expressed on DO11.10 cells …", "assay": "cell-based or functional assay"}, "[7]": {"target": "T3, human CD137 expressed on DO11.10 cells …", "assay": "cell-based or functional assay"}, "[8]": {"target": "T6, hOX40-mFc (human)", "T6 construct": "Dimeric; also called human OX40-mFc", "T6 chain": "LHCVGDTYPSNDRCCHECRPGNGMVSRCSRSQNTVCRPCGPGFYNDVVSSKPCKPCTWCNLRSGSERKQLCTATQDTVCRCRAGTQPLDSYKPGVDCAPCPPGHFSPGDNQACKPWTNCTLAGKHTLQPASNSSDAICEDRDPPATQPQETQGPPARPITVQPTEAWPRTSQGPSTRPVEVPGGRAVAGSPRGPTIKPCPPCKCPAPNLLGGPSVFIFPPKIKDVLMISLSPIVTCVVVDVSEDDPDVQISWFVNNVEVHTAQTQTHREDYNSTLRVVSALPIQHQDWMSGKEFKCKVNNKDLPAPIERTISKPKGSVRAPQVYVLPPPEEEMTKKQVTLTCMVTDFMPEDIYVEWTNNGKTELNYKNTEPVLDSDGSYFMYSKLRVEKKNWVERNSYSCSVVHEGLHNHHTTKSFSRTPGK", "assay": "SPR, antigen immobilised on CM5, mAb^2 at 1 nM and 1 µM"}, "[9]": {"target": "T7, hCD137-mFc-Avi (human)", "T7 construct": "Dimer; a biotinylated version was used where the text says so; also called human CD137-mFc-Avi; hCD137-mFc-Avi-Bio", "T7 sequence (chain, as listed by the source limits assumed)": "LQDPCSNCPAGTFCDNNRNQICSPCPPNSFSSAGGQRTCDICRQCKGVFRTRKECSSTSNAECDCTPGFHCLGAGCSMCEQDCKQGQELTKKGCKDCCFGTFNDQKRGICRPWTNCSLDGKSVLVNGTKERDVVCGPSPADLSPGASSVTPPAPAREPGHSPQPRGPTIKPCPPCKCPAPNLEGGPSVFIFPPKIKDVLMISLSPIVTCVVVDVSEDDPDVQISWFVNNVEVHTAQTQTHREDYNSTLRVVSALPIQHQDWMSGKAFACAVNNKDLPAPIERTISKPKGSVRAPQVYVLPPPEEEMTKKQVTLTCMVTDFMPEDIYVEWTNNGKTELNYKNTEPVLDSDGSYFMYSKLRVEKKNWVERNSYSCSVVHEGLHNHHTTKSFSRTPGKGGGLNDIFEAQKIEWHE", "assay": "SPR, antigen immobilised on CM5, mAb^2 at 1 nM and 1 µM"}, "[10]": {"target": "T4, human OX40 expressed on DO11.10 cells …", "assay": "flow cytometry on DO11.10 cells expressing the target", "description": "as §1"}, "[11]": {"target": "T5, cynomolgus OX40 expressed on DO11.10 …", "assay": "flow cytometry on DO11.10 cells expressing the target", "description": "as §1"}, "[12]": {"target": "T8, cOX40-mFc (cynomolgus)", "T8 construct": "Dimeric; also called cyno OX40-mFc", "T8 chain": "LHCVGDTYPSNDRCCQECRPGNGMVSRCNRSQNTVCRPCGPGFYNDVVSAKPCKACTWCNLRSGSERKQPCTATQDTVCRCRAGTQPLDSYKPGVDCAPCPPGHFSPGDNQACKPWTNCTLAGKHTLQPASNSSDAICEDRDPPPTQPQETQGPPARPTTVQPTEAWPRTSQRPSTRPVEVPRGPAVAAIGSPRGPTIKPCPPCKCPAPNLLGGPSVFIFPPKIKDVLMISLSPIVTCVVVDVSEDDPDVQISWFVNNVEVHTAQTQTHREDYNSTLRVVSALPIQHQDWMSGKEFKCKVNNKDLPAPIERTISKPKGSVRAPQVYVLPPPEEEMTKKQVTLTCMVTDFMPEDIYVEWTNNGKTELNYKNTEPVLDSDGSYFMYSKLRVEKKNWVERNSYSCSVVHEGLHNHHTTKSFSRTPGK", "assay": "SPR, antibody captured via anti-human Fab, antigen flowed"}, "[13]": {"target": "T6, hOX40-mFc", "assay": "SPR, antibody captured via anti-human Fab, antigen flowed"}}}
{"binder": "B1", "values": [{"measurement": "fluorescence over non-transduced cells (fold)", "setting": "[1]", "value": "≥ 10", "unit": "fold"}]}
{"binder": "B2", "values": [{"measurement": "EC50", "setting": "[2]", "value": 0.09, "unit": "nM"}, {"measurement": "EC50", "setting": "[3]", "value": 0.1, "unit": "nM"}, {"measurement": "binding result", "setting": "[4]", "value": "no binding"}, {"measurement": "binding result", "setting": "[5]", "value": "no binding"}]}
{"binder": "B3", "values": [{"measurement": "SEA assay (PBMC), hIL-2 max response, crosslinked", "setting": "[6]", "value": 32200, "unit": "pg/mL"}, {"measurement": "SEA assay (PBMC), hIL-2 max response, no crosslinker", "setting": "[6]", "value": 32400, "unit": "pg/mL"}, {"measurement": "SEA assay (PBMC), hIL-2 release EC50, crosslinked", "setting": "[6]", "value": 0.14, "unit": "nM"}, {"measurement": "SEA assay (PBMC), hIL-2 release EC50, no crosslinker", "setting": "[6]", "value": 0.09, "unit": "nM"}, {"measurement": "EC50 of mIL-2 release, DO11.10-hCD137 assay, crosslinked", "setting": "[7]", "value": 5.1, "unit": "nM"}, {"measurement": "Emax of mIL-2 release, DO11.10-hCD137 assay, crosslinked", "setting": "[7]", "value": 19800, "unit": "pg/mL"}, {"measurement": "binding result", "setting": "[8]", "value": "binds"}, {"measurement": "binding result", "setting": "[9]", "value": "binds"}]}
{"binder": "B4", "values": [{"measurement": "binding result", "setting": "[10]", "value": "no binding"}, {"measurement": "binding result", "setting": "[11]", "value": "no binding"}, {"measurement": "binding result", "setting": "[12]", "value": "no binding (tested: 200 nM)"}, {"measurement": "binding result", "setting": "[13]", "value": "no binding (tested: 200 nM)"}]}
